Key:
[1] = target: CFP from CFP-empty plasmid (pECFP); assay: FRET by acceptor photobleaching, negative control: cotransfection of CFP- and YFP-empty plasmids
[2] = target: CFP-tagged CD44 (human full length CD44s cDNA fused in frame into pECFP, expressed in MDA-MB231 cells) (human) (UniProt P16070); assay: FRET by acceptor photobleaching in MDA-MB231 cells, in the presence of blocking antibody to αvβ3 integrin
[3] = target: CFP-tagged CD44 (human full length CD44s cDNA fused in frame into pECFP, expressed in MDA-MB231 cells) (human) (UniProt P16070); assay: FRET by acceptor photobleaching, confocal microscopy, MDA-MB231 cells coexpressing CFP-CD44 and YFP-OPN
[4] = target: CFP-tagged CD44 (human full length CD44s cDNA fused in frame into pECFP, expressed in MDA-MB231 cells) (human) (UniProt P16070); assay: FRET by acceptor photobleaching in MDA-MB231 cells, in the presence of the mutated OPN-R3 RNA aptamer (control)

Substance	FRET efficiency [1]	FRET efficiency [2]	FRET efficiency [3]	FRET efficiency [4]
YFP from YFP-empty plasmid (pEYFP)	0.23%			
YFP-tagged OPN (human OPN-a cDNA fused in frame into pEYFP, expressed in MDA-MB231 cells) (from UniProt P10451 1-314) (ligand)		19.6%	24.2%	23.1%

From patent US20100293752A1
